The target in this experiment is human LDLR, endogenous on HUVEC (human (endogenous in HUVEC)) (UniProt P01130). In words: flow cytometry on cells; 1.10^10 phage on 1.10^6 HUVEC, 20 min on ice, without or with LDL at 0.5 mg/mL; anti-M13 (anti-PVIII) and anti-hLDLR antibodies; signal in zone Q2.
human LDLR, endogenous on HUVEC (human (endogenous in HUVEC)), sequence (P01130 22-860): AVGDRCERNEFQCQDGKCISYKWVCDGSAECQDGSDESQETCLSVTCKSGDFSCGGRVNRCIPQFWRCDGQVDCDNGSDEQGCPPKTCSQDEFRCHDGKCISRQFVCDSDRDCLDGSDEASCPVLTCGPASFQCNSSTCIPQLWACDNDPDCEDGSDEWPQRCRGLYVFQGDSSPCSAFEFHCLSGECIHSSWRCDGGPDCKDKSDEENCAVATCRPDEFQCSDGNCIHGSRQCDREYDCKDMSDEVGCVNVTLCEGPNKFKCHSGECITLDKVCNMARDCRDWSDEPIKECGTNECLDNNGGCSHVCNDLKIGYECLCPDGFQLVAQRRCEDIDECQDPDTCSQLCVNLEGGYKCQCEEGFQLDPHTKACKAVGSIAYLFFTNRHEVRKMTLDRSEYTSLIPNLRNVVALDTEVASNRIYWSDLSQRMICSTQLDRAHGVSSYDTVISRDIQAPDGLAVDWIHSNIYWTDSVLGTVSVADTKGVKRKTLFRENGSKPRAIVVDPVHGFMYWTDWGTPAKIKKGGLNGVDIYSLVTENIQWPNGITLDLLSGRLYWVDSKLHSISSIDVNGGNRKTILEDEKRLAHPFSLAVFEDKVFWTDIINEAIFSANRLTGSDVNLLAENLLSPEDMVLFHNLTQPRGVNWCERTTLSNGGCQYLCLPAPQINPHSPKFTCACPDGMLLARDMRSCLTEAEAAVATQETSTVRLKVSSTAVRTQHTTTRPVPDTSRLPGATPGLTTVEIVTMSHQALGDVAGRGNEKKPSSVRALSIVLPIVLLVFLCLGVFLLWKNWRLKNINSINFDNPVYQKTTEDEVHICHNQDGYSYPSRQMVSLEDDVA

In the case of “low-density lipoprotein (LDL), P04114 28-4563”, the percent reduction of the VH549 phage signal (Q2) with LDL at 0.5 mg/mL worked out at 56%.
